Where two headings read alike, the source gives them in different places. Each block holds one binder with its values, some of them ahead of it. Starred links: 1 amine or outer side, 2 acyl side, 3 side chain; linkers in the order of their positions; H or OH if unused. Positions of bridges follow the written chain, without caps; N, C: chain ends. Non-standard residues stand in square brackets, D forms with d. αMeNva(5-ylidene) = C[C@@](CCC=[*:3])(N[*:1])C(=O)[*:2]; S8 = C=CCCCCCC[C@](C)(N)C(=O)O; SeMet = C[Se]CC[C@H](N)C(=O)O; S5 = C=CCCC[C@](C)(N)C(=O)O; Nle = CCCC[C@H](N)C(=O)O
Legend:
[1] = target: T1, hE1 for Nedd8 (APPBP1-UBA3, NAE1-UBA3) (Homo sapiens, UniProt Q13564 18-534; Q8TBC4 22-463, limits assumed); test: ITC, peptide titrated into hE1
T1 construct: Heterodimeric E1 expressed in E. coli as described in earlier publications
T1 sequence 1: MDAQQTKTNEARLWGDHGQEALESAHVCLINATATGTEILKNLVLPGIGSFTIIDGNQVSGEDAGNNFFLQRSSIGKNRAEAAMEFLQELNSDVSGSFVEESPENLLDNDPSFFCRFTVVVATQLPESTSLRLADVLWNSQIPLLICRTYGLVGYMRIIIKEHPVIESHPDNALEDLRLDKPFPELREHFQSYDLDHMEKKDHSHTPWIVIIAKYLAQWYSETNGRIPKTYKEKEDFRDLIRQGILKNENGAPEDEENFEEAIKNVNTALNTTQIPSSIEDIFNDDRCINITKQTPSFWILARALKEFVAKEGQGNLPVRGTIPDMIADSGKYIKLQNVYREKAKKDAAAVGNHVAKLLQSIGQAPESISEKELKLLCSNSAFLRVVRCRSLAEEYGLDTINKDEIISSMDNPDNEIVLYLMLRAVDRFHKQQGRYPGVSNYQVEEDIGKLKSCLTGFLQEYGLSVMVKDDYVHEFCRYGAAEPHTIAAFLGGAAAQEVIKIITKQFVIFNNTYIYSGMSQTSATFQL
T1 sequence 2: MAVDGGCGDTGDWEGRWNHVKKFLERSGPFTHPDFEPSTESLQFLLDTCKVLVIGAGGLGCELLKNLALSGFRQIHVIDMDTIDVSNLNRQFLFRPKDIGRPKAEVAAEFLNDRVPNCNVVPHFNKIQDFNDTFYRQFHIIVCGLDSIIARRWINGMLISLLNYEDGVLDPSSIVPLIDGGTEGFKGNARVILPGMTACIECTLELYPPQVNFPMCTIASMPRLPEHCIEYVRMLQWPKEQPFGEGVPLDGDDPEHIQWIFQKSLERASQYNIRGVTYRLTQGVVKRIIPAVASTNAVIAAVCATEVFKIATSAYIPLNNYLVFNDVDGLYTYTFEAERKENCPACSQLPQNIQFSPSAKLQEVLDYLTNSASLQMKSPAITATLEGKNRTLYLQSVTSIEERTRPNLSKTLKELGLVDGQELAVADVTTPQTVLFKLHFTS
Protocol: (§1) Specifically, Phe5 and Gln9 were replaced with (S)-2-(4′-pentenyl) alanine and these side-chains were covalently linked to test the effect of “stapling” an acetylated Ubc12 peptide into a helix (Bird et al. (2008) Methods Enzymol 446:369-386).
(§2) Protein samples were buffer matched by desalting over a NAP-5 column (GE Healthcare) into 50 mM Hepes, 125 mM NaCl, 1 mM BME, pH 7.0 (ITC buffer). Peptides were dissolved by weight to a final concentration of 10 mM in ITC buffer and diluted further in ITC buffer as required for the experiments. […] The peptide ligands (4 mM) were constantly injected (1.5 μl). The interval time between each injection was 3 minutes and the duration of each injection was 3 seconds. […] Peptide ligands (250 μM) were constantly injected (2.5 μl). The interval time between each injection was three minutes and the duration of each injection was 5 seconds. […] The interval time between each injection was 3 minutes and the duration of each injection was 5 seconds. Obtained spectra were evaluated using Origin (V 7.0) to determine heats of binding and Kd values.

[2] = target: T2, hDcn1^P (PONY domain of human Dcn1 / DCUN1D1 / SCCRO, residues 62 to 259) (Homo sapiens, UniProt Q96GG9 62-259); test: ITC, peptide titrated into hDcn1^P
T2 construct: NEDD8 co-E3; Expressed as a GST fusion in E. coli; GST was removed with TEV protease; also called DCUN1D1^P
Protocol: as §1, §2

[3] = target: T3, hDcn5^P (PONY domain of human DCUN1D5) (Homo sapiens, UniProt Q9BTE7 47-237); test: ITC, peptide titrated into Dcn PONY domain
T3 sequence: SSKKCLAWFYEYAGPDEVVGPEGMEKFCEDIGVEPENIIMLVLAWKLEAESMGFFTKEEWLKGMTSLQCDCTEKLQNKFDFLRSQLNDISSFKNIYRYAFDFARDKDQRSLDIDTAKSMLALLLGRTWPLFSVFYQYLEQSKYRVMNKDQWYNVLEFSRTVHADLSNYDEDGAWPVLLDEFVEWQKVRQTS
Protocol: as §2

[4] = target: T4, hDcn3^P (PONY domain of human DCUN1D3) (Homo sapiens, UniProt Q8IWE4 86-304); test: ITC, peptide titrated into Dcn PONY domain
T4 sequence: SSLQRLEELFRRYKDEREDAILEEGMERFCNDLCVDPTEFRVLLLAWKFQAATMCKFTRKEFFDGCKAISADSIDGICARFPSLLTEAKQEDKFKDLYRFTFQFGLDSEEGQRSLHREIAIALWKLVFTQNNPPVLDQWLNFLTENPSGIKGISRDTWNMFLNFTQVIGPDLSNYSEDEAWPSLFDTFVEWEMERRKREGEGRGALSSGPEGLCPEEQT
Protocol: as §2

[5] = target: T5, hDcn1^P (potentiating neddylation / PONY domain of human Dcn1, DCUN1D1) (Homo sapiens, UniProt Q96GG9 62-259); test: ITC, peptide titrated into Dcn PONY domain
T5 construct: also called DCUN1D1^P; SCCRO PONY domain
Protocol: as §2

[6] = target: T5, hDcn1^P (potentiating neddylation / …); test: ITC, two-site fit, second value
Protocol: as §2

[7] = target: T5, hDcn1^P (potentiating neddylation / …); test: ITC, two-site fit, first value
Protocol: as §2

[8] = target: T2, hDcn1^P (PONY domain of human Dcn1 / …); test: ITC, peptide titrated into hDcn1^P; remark: listed apart in the source
Protocol: (§3) To gain insights into mechanistic roles of Ubc12 N-terminal acetylation, isothermal titration calorimetry (ITC) was used to quantify interactions with peptides corresponding to the N-termini of yeast or human Ubc12.
as §2

[9] = target: T1, hE1 for Nedd8 (APPBP1-UBA3, NAE1-UBA3); test: ITC, peptide titrated into hE1; remark: listed apart in the source
Protocol: as §3, §2

[10] = target: hDcn1^P (PONY domain of human Dcn1 / DCUN1D1 / SCCRO, residues 62 to 259) (Homo sapiens) (UniProt Q96GG9); test: ITC, peptide titrated into hDcn1^P
[11] = target: T6, hDcn4^P (PONY domain of human DCUN1D4) (Homo sapiens, UniProt Q92564 102-292); test: ITC, peptide titrated into Dcn PONY domain
T6 sequence: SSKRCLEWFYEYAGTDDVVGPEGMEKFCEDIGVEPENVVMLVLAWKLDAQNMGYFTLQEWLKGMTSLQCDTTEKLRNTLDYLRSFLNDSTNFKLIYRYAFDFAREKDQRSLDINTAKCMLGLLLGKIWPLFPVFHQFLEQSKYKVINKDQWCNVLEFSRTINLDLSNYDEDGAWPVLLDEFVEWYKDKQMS
Protocol: as §2

[12] = target: yDcn1^P (potentiating neddylation / PONY domain of Saccharomyces cerevisiae Dcn1) (Saccharomyces cerevisiae) (UniProt Q12395); test: ITC, peptide titrated into yDcn1^P
[13] = target: T7, yE1 for yNedd8 (Ula1-Uba3) (Saccharomyces cerevisiae, UniProt Q12059 1-462, limits assumed); test: ITC, peptide titrated into yE1
T7 construct: Heterodimeric E1 expressed in E. coli as described in earlier publications
T7 sequence 1: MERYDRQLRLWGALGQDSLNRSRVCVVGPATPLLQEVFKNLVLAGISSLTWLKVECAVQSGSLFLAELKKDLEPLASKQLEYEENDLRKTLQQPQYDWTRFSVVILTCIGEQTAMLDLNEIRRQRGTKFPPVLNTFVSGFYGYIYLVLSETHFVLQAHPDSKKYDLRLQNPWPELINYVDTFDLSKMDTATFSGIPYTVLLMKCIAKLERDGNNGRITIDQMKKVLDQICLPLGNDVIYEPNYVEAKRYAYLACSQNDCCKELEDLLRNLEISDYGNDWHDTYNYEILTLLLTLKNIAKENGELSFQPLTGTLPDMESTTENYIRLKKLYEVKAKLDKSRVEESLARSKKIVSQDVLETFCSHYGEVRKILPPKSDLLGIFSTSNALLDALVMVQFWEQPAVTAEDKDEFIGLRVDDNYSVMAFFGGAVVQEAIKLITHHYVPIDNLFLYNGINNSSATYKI
T7 sequence 2: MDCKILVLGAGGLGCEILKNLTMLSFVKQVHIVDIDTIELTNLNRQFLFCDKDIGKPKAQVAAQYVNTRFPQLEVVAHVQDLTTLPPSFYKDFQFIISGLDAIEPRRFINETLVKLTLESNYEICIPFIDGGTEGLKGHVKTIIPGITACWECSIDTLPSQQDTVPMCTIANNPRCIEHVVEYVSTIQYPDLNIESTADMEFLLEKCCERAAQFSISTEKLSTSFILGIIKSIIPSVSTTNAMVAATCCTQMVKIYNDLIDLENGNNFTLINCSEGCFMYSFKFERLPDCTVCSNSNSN
Protocol: as §3, §2

T5 sequence (Q96GG9 62-259): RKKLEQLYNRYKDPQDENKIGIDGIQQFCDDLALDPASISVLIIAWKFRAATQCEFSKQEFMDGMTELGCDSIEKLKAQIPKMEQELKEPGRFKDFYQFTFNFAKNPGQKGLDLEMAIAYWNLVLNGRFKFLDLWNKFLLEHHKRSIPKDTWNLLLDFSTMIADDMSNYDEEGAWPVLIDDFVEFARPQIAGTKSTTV
T2 sequence (Q96GG9 62-259): as above
Sequence of hDcn1^P (PONY domain of human Dcn1 / DCUN1D1 / SCCRO, residues 62 to 259) (Homo sapiens) (Q96GG9 62-259): as above

Binder: Ac-MIKLF[αMeNva(5-ylidene)]LKQ[S8]KK-NH2 (staple 6-10) [hUbc12^Ac1-12 (Met) But:Oct 6, 10]
Kd [3]: 0.781 µM
Kd [4]: 1.52 µM
Kd [5]: 0.12 µM

B3: Acetyl-hUbc12^1-26 peptide (peptide)
peptide: Ac-MIKLFSLKQQKKEEESAGGTKGSSKK-NH2
notes: Synthetic peptide; also called hUbc12^Ac1-26
Kd [8]: 1.11 µM
ΔH [8]: -25.6 kJ/mol
ΔS [8]: 5.84 cal/mol/deg
Kd [9]: 0.943 µM
N (stoichiometry) [9]: 1.14
ΔH [9]: -39.4 kJ/mol
ΔS [9]: -4.79 cal/mol/deg

B5: hUbc12^1-26 peptide (free N-terminus) (peptide)
peptide: H-MIKLFSLKQQKKEEESAGGTKGSSKK-NH2
notes: Synthetic peptide, N-terminal extension of human Ubc12 (UBE2M)
N (stoichiometry) [10]: 0.75
ΔH [10]: 5.27 kJ/mol
ΔS [10]: 22.2 cal/mol/deg
Kd [9]: 0.585 µM
N (stoichiometry) [9]: 1.29
ΔH [9]: -37.2 kJ/mol
ΔS [9]: -1.99 cal/mol/deg

B6: Acetyl-hUbc12^2-26 peptide (peptide)
peptide: Ac-IKLFSLKQQKKEEESAGGTKGSSKK-NH2
notes: Synthetic peptide lacking Met1; also called hUbc12^Ac-2-26
ΔH [8]: 7.19 kJ/mol
ΔS [8]: 24.1 cal/mol/deg
Kd [9]: 0.39 µM
N (stoichiometry) [9]: 1.04
ΔH [9]: -37.2 kJ/mol
ΔS [9]: -1.24 cal/mol/deg

B7: Acetyl-hUbc12^1-12 peptide (peptide)
peptide: Ac-MIKLFSLKQQKK-NH2
notes: Synthetic control peptide for the stapled peptide; also called hUbc12^Ac1-12
Kd [1]: 0.63 µM
ΔH [1]: -48.1 kJ/mol
ΔS [1]: -11 cal/mol/deg
ΔH [2]: -20.9 kJ/mol
ΔS [2]: 8.79 cal/mol/deg

Binder: Ac-MIKLFSLKQQKK-NH2 (also called Acetyl-hUbc12^1-12) [hUbc12^Ac1-12]
Kd [11]: 13.1 µM
Kd [4]: 6.3 µM

Further lines, results first:

binding result [1]: no binding
Kd [2]: 0.15 µM
ΔH [2]: -14.2 kJ/mol
ΔS [2]: 19.3 cal/mol/deg
B1: Acetyl-hUbc12^1-12(5:9Staple) peptide (peptide)
peptide: Ac-MIKL[S5]SLK[S5]QKK-NH2
modifications: staple 5-9
notes: Printed as Ac-MIKLXSLKXQKK-NH2, X = 2-(4-pentenyl)alanine; Phe5 and Gln9 are replaced

Kd [6]: 0.037 µM
Kd [7]: 0.038 µM
B2: yUbc12^Ac1-12 (Met) 6, 10 (peptide)
peptide: Ac-MLKLR[S5]LQK[S5]KQ-NH2
modifications: staple 6-10
SMILES: CSCC[C@H](NC(C)=O)C(=O)N[C@@H](CC(C)C)C(=O)N[C@@H](CCCCN)C(=O)N[C@@H](CC(C)C)C(=O)N[C@@H](CCCNC(=N)N)C(=O)N[C@@]1(C)CCCC=CCCC[C@@](C)(C(=O)N[C@@H](CCCCN)C(=O)N[C@@H](CCC(N)=O)C(N)=O)NC(=O)[C@H](CCCCN)NC(=O)[C@H](CCC(N)=O)NC(=O)[C@H](CC(C)C)NC1=O
notes: Stapled synthetic peptide; also called Acetyl-yUbc12^1-12(6:10 Staple)

Kd [6]: 0.187 µM
Kd [7]: 0.0018 µM
B4: hUbc12^Ac1-12 (Met) SS 6, 10 (peptide)
peptide: Ac-MIKLF[S5]LKQ[S5]KK-NH2
modifications: staple 6-10
notes: Stapled synthetic peptide; 'SS' is not explained in the text

Kd [6]: 1.2 µM
Kd [7]: 0.8 µM
B8: hUbc12^Ac1-12 (NorLeu) 6, 10 (peptide)
peptide: Ac-[Nle]IKLF[S5]LKQ[S5]KK-NH2
modifications: staple 6-10
SMILES: CCCC[C@H](NC(C)=O)C(=O)N[C@H](C(=O)N[C@@H](CCCCN)C(=O)N[C@@H](CC(C)C)C(=O)N[C@@H](Cc1ccccc1)C(=O)N[C@@]1(C)CCCC=CCCC[C@@](C)(C(=O)N[C@@H](CCCCN)C(=O)N[C@@H](CCCCN)C(N)=O)NC(=O)[C@H](CCC(N)=O)NC(=O)[C@H](CCCCN)NC(=O)[C@H](CC(C)C)NC1=O)[C@@H](C)CC
notes: Stapled synthetic peptide

Kd [6]: 0.361 µM
Kd [7]: 0.00093 µM
Binder: Ac-[SeMet]IKLF[S5]LKQ[S5]KK-NH2 (staple 6-10, Stapled synthetic peptide) [hUbc12^Ac1-12 (SeMet) 6, 10]

N (stoichiometry) [12]: 1.16
ΔH [12]: 15.8 kJ/mol
ΔS [12]: 33.4 cal/mol/deg
Kd [13]: 0.07 µM
N (stoichiometry) [13]: 1.05
ΔH [13]: -35.9 kJ/mol
ΔS [13]: 2.65 cal/mol/deg
B9: yUbc12^1-24 peptide (free N-terminus) (peptide)
peptide: H-MLKLRQLQKKKQKENENSSSIQPN-NH2
notes: Synthetic peptide, N-terminal extension of yeast Ubc12
